Measurements taken from paper doi:10.1101/467969 (bioRxiv, 2018).

Molecular target: the molecule itself
Assay: cryo-EM structure

B1: mouse TRPC5 construct lacking the C-terminal 210 residues (a.a. 1-765) (domain or fragment, UniProt Q9QX29 1-765, looked up)
chain: MAQLYYKKVNYSPYRDRIPLQIVRAETELSAEEKAFLSAVEKGDYATVKQALQEAEIYYNVNINCMDPLGRSALLIAIENENLEIMELLLNHSVYVGDALLYAIRKEVVGAVELLLSYRKPSGEKQVPTLMMDTQFSEFTPDITPIMLAAHTNNYEIIKLLVQKRVTIPRPHQIRCNCVECVSSSEVDSLRHSRSRLNIYKALASPSLIALSSEDPILTAFRLGWELKELSKVENEFKAEYEELSQQCKLFAKDLLDQARSSRELEIILNHRDDHSEELDPQKYHDLAKLKVAIKYHQKEFVAQPNCQQLLATLWYDGFPGWRRKHWVVKLLTCMTIGFLFPMLSIAYLISPRSNLGLFIKKPFIKFICHTASYLTFLFMLLLASQHIVRTDLHVQGPPPTVVEWMILPWVLGFIWGEIKEMWDGGFTEYIHDWWNLMDFAMNSLYLATISLKIVAYVKYNGSRPREEWEMWHPTLIAEALFAISNILSSLRLISLFTANSHLGPLQISLGRMLLDILKFLFIYCLVLLAFANGLNQLYFYYETRAIDEPNNCKGIRCEKQNNAFSTLFETLQSLFWSVFGLLNLYVTNVKARHEFTEFVGATMFGTYNVISLVVLLNMLIAMMNNSYQLIADHADIEWKFARTKLWMSYFDEGGTLPPPFNIIPSPKSFLYLGNWFNNTFCPKRDPDGRRRRHNLRSFTERHADSLIQNQHYQEVIRNLVKRYVAAMIRNSKTNEGLTEENFKELKQDISSFRYEVLDLLGNRK
For B1, the “stoichiometry N” value was 4.
